B1: human monoclonal antibody 3G12 (recombinant human IgG1) (antibody, V domains shown)
VH: QLQLQESGPGLVKPSETLSLTCTVSGGSISSSNYYWGWIRQPPGKGLEWIASIHDSGSIYYNPSLRSRVTISVDTSKNQFSLKLSSVTAADTAVYYCARHLVWFGELRNNWFDPWGQGTLVTVAS
VL: EIVMTQSPATLSVSPGERATLSCRASQSVNSNLAWYQHKPGQAPRLLIYGASTRATGIPARFSGSGSGTDFTLTISSLQSEDFAVYYCQQYNNWPLFGPGTKVDLK
notes: also called mAb 3G12; source: CHO-S, electroporated, purified (HiTrap Protein G)
B2: human monoclonal antibody 2D10 (recombinant human IgG1) (antibody, V domains shown)
VH: QVQLVQSGPEVKKPGASVRLSCKASGYVFTNYGVSWVRQAPGQGLEWMGWSSPYNGNTYYAQKLKARVTMTTDTSTNTAYMELRSLRSDDTAVYYCGRDMLGVVQAVAGPFDSWGQGTLVTVSS
VL: DTPMTQSPSSVSASVGDRVTISCRASQGISNSLAWYQQKLGKAPQLLIYAASSLQSGVPSRFSGSGSGTDFTLTISSLQPEDFATYYCQQTNTFPFTFGPGTKVEVR
notes: also called mAb 2D10; source: CHO-S, electroporated, purified (HiTrap Protein G)
B3: Fab 2D10 (papain fragment of mAb 2D10) (Fab, V domains shown)
VH: B2 VH
VL: B2 VL
notes: source: papain digestion of the full length mAb from CHO-S, Fc removed with protein A, purified (Superdex 200 SEC)
B4: Fab 3D3 (papain fragment of mAb 3D3) (Fab, V domains shown)
VH: EEQLVESGGGLVQPGRSLRLSCVGSGLRFEEHAMHWVRQAPGRGLEWVSGISWNSGSVGYADSVKGRFTTSRDNAKDILFLEMNTLRSEDTALYFCAIMVATTKNDFHYYKDVWGKGTTVTVSS
VL: QIVLTQSPATLSLSPGERATLSCRASQSVSNHLAWYQQKPGQAPRLLIYETSNRATGIPPRFSGSGSGTDFTLTISSLEPEDFAVYYCQQRNNWYTFGQGTKLEIK
notes: as for B3
B5: human monoclonal antibody 3D3 (recombinant human IgG1) (antibody, V domains shown)
VH: B4 VH
VL: B4 VL
notes: also called mAb 3D3; TRL3D3; source: CHO-S, electroporated, purified (HiTrap Protein G)

Assays:
[1] = molecular target: T1, RSV strain A2 (RSV/A2) G glycoprotein ectodomain (RSV G^ecto) (Human respiratory syncytial virus A, …, UniProt P03423); test: BLI; conditions: both partners purified
T1 construct: not shown: 6xHistidine-Tag, C-terminal, kept

[2] = molecular target: RSV G^ecto with GalNAc-restricted O-glycosylation (Human respiratory syncytial virus A, …, UniProt P03423); test: cryo-EM structure; conditions: both partners purified
Chain of RSV G^ecto with GalNAc-restricted O-glycosylation (P03423 whole entry, looked up): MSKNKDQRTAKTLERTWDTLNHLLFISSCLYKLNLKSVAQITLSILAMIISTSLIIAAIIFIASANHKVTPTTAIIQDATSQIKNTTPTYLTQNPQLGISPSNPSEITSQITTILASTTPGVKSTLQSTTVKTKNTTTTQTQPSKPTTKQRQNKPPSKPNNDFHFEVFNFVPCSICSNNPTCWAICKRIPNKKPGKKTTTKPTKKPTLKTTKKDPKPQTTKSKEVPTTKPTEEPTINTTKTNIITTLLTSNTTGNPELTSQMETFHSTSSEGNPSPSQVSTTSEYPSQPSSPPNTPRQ

T1 sequence (P03423 whole entry, looked up, the tested form may be a part): as the sequence (P03423 whole entry, looked up) above

Binder | binding result [1] | binding result [2]
B1 | binds | 
B2 | binds | 
B3 |  | binds
B4 |  | binds
B5 | binds | 
